Data: the DeepSol protein solubility set

Test: soluble on expression in E. coli; label from the status in PepcDB or PDB records

Soluble on expression in E. coli, not soluble:
MGSDKIHHHHHHVDDRPGTTGIRRTNPVMTDPKHRTEAPFDEQIIREYLIDNPDFFGRYPELLLAMRMSHTERGTVSLLERRQEMYRNRVAQLEEEITALMTQARRNEKIFRFNNDLQFKLLASAALGDVRQILSQALMSEFGFTHVRLITVHDVDSELSAIWSNRLARGHYFGRLTASESRRLFGSEVGSVALTRLSEHCGQVVFAIASQDPAHFHPEMDNLLLDQLRRILDHLLPRL, MGSDKIHHHHHHVFIGIETTDPEGLKETGKVQNLREDPLTAVRRIYAHGIDVLGGFIIGFDHDTMATFEHQYRFITDAGIQSAMIGLLMALPRTPLHERMQREGRLLPLDGHADNTCLTTNIAPRSMNIDAMVAAYQELYRRLLTGPEIGRRIRNKMKYLQAPVYGSGYSMGQRAGILARLMVRGIGAGGLSTLVAFLRSFPFLTPSRIPMVISDWIIGLSMKAFAETSLLGRSTQGLNNAATGISTGLRDP, MGSDKIHHHHHHVGAGHPRKELEGKAKATKQQQDLKKLLSGQKHVAFPQQVVALPFDASANLTALVYEPLLPLQYSDYKGAQLITGLRKIHEKNVVHGDISVRNIMQSKQGVAKFIDLNPMDPLSESKKSRDIRYLGKSLLEMKFAKSLEQENHRMLSYIAKHEDIYSKAQSNQAYQELKYNNAWFTYSLTQSGSIEKVPGDMDTFLELLGMEEIIKRDLEKQAGEVFSFDGKFAKFISEQPDPENTDFTAMALYMLEHGQIPNNADGILAKLLRVKQ, MGSDKIHHHHHHVKEIRERGGTVKQQLITTHDGGRLALYSYGTVDAPGERRVVVIGGAFLTALIYRPFSEALSKGLGDGWAVDVYDRRGRGESTPQPADYSMATEIADVRTIMDATGARNLFGHSLGGSVALNAVQEFVGTAHQPDRLAVYDAAVNIDGSVDTSWLDSFERSVNEGNVPHALAKLKKGMQPGTAMARIPEPVLAGLMALVSRTKVNRLFKEVMPSGVGELKAVFDEADHVRDFSVLPPNTRFMVGSKSPRYYKVTAELLHRAVPGSVLQVSPKCVHASIPAAVKELVADISAYYKG, MGSDKIHHHHHHVKKLELYTGTEQGKPAIGIRLGGEASIQDLLDLWQPLCDDSELFKSYAAGNHATCRGCLHNCCQTAYVIPDLISFKKMAAHLHLTYKEFLSADFFDAEKLEAGIVRMKPNPCIFLQDNICSIYPLRSLICRFYICCQLMGDCEQLIYSICWSGSAATQLFAEQEGLINSKGSGALSSFDLMFKRLMEEYRFDPRVQLFLQANDYYDIPLSAFTAADI, MGSDKIHHHHHHVKSELIWSKALETSRKAIDCAAVIPLETYKYKSIKKCFDFELRFLKRTFPKNLIDYGPKANPFIPWDRRLEVQAVNDNYTIILNKYPVQLGHLLLISNYWKPQNSWLSIDDFEAIAKVDNDTTGLWFFNSSKDAGASQPHRHFQLLRRDKYENICPRYEWFCSLLNNSEGFNSDIKQCISIKPRKSKLDIDAHDLFNSYKSMIIEMDLGNINNDDKPLKPYNLLITEKWISLIVRSKDRAHGFGINALGFAGYFLGTRRSDIDMLIKFGPESILKDVI, MGSDKIHHHHHHVNVAQPEPGSGPTVRRMLLGSQLRRLREAKGISRADAAYKIRGSESKISRIELGRVGFKTRDVEDLLTFYGVEDEAVRDSFLKLAREANEPGWWQQYGDSLPSWFQSYVGMEEAATQLRVYETQFVPGLLQTEDYARAVVTRGGRKKLDDAARHRIATRMRRQERIRKNHNVKLWVIIDEPAVRRPVGTPEVMRAQLEHLYDLSMAPNITLQIVPFHQGVFAAETGSFTILRYPEYDLPDVVYVEQLTSCLFQEKRADVEQYTMTLEWLAVVAERPDQTRKMLQKMIKELEE, MGSDKIHHHHHHVPSGNGDNPATGARGGNMEISFLVPNSSNGSRAASAEDSGVYEDGTAEEYKVSNVTLYLFDSSSKNLVTTINVTQSDLGAGTSSGESSKEGQTIVYPCNKEITVKPGNYDILAVANGSQTFEIGQESTLLGQIDASTYGNGMITSVPGSGFIMSNRGSANMNITVESPEESDTKTQVRINLERAVAKLMVRNDSKEIYTLKNPAGVTYATVRLNNYKFINLANKFYTFRHVATLDNAPETPSAPSSYSVEAGNFGNIADNNGYLIDPYFFDKTVAGATTNFTGGSFYTNHLSKQTDSNWSGLADAGKYVSMYCLENCMFRPAQNTVYTTGIMLKGTFTPEASQTIGNNGNPVEDPLVFNTLYYFNYKFYTTLAAVGKYGDANIDGLTEESSDAELAAKQITRFTKNGGNFSTFYNYWIKHLDNNNPTVMGVMEFGIVRNNIYSVNITSIKNLGPGTPDTKPDPDENKAFLDVEFGVYPWIVRDQDADLE, MGSDKIHHHHHHVQKMAEGSHSAITLEAGKYRATVDPLGAALRTLHWGERELVWGYPEGRPQLAQGQILLPWPNRIDHGRYSFGGTTYQLEITEPELDNAIHGLTSTLLWQPSQITADSVRFTLAFDGAPGYPFRMEFWVCYSLDPDHGLHVRIGAQNTGDGPAPYGHGSHNYLTLGLPVDEVTLQLPAAEWQPVNERMIPTGPVRSVAGTDYDFRTPRQVGPTVLDTAFTGLRFDEAGRSWTVLSAGELCVGLWADDSHPWLQVFSADYPGPERRRHLAVEPMTCPPNAFVTGTDLIVLDPGQSIESSFGITSTPE, MGSDKIHHHHHHVSDLLSQDEIDALLHGVDDVEEEEVSDALDARAYDFSSQDRIVRGRMPTLEIVNERFARHLRISMFNMMRRAAEVSINGVQMLKFGEYVHTLFVPTSLNMVRFSPLKGTALITMEARLVFILVDNFFGGDGRFHAKIEGREFTPTERRIVQLLLKIIFEDYKEAWAPVMDVEFDYLDSEVNPAMANIVSPTEVVVVSSFHIEVDGGGGDFHITMPYSMIEPIRELLDAGVQSDTQDTDMRWSQALKDEIMDVEVGLDATIVEKEISLKDVMGFKAGDIIPVEMPEYIVLRVEDLPTYRCKLGRSRENLALNIREKIPRPETVKTELQLVTKKSKSRDLNNI, MGSDKIHHHHHHVTAPAFLPVILAGGSGERFWPLSRKHRPKQFLTLDETGRSLLQATSDRLGRLSGSPEQVMVVTGTEYRTQVLEQLPDMPIEHLIVEPVARDTAPAVLYAALRVAQENPQAVMGVFPADHRITDAQAFGRVVRRAIEVAEITGGLVTLGVTPTFPATGYGYIQRGEQLLGGELPAFRVSRFTEKPDAETAQLFLADGRYTWNSGMFIWRVQAILAAFEQYQPDMYAQLSAAVRGSPRQVRAVFPELQKISIDYAILEKSDQVVVIPAEFGWDDLGDWNALERLLKGEGQNVAVGRHVGLDTDGAILYTTGGDGLIATIGLEDVVVVRTDEVTLVVRKDRTQDIKKVVQQLKSHPELERFA, MGSDKIHHHHHHVTGSDTQLYPPMSTYLENHNIRYFNSFSAENLKSATPDLVVVGNAISRGNPDLEYALDQHMELISMPQLVRRELIGRHTSIVVAGTHGKTTTTSLVAWLLEAGGLLPGFLIGGIPENFGDGCRPSGLSEPGFFVTEGDEYDSAFFDKRSKFLHYRPDIAIINNVEFDHADIFDSLDDIKKSFRLLVNLVPSNGLLIVNADDPNSMEVSAKAFCRVETFGLNGNAEWTAADIATDTDGTSFTVVRDSEAIGRVKVPLFGNYNVMNALAATAAAIRAGVSFESVTRGLCSFKRPKRRMELVGEYAGGITLIEDFAHHPTAIRLTLGAIAEHYPGRRIIACFEPRSNTTSRNIFQHELSECFGDAAIVVLGKVNRPERYAPEERLDAALLCRELKANGKRVFAAGSENYPEDIVRFIEAEQQPGDVVVLLSNGSFSGLKEMLAESFQKNS, MGSDKIHHHHHHVTIEIRQLRYALMSADLRSFSGAASRLNVKQATLSRSVLQLEDRLGIKLFERTTRGAEPTETGKVFLETARRIITDLENLQTTARAVSYGEQGRFAVGYCSSLMAGHLKAAFSDYLTRFPDVQFDGVEGDPDKLCSDLRAGTIDVAIAPLGSEEQGIASRPVWSERLVAALYPEHPLLEASRIYWGDLRREIFVVPRKGIGQMIRNMITARLTGQGYRPNIITQETSLESVLSMVPVGRFITIATEASMGVAWPELQFRDIYDNGGTARIDFALYWREDNENPALQRFFTMINERYPA, MGSDKIHHHHHHVTPLPIVDPGPPVLYDVEHVTSYRYALPVTVSHQCAHLKPRSFATQQVLSTQLGATPLPEIRSERIDYFGNTVTSFSLSEPHESLTVVAQSQVRILPPTLPAAADTPRWEEVAERLRLGFGADTLDACQMLYPSGHVKTLPEVRAYALPSFPPDRPILEAAIDLTGRIHADFTYDPTATTVATPLAEVLAKRRGVCQDFAHLQIACLRSMGLAARYVSGYVLTCSTESGERLEGGDASHAWVSLYVPCAAAPNGGWIDLDPTNDKLITREHVTVAWGRDFEDVSPIKGVMLGGGAQTVSVAVTLRPRTNGPRARTESPA, MGSDKIHHHHHHVYTSFYGFKAKPFQLSPDPSFFFGSKGHNRAMAYLEYGLAQAEGFIVVTGEVGAGKTTLVRNLFRQLEPEKIVAAQIVNTSLDSDDTLRMVAAAFGLPLAQGNPGKTPVLVALEKFFRQCEQQGKRALLVVDEAQNLSPQTVEELRMLSNFQGDNKSLLQTFLLGQPEFRKTLLGNDMQQLRQRITATYHLGPMDRAETKSYIEHRLKTVGWGGNPGFDEEAFDAIHQYTGGIPRRINALCDRLLLMGYLEKLQHFGVSEVNEVIRDIQQEFDAVEVEAGLLSGDKTSPLKEEQFAIGLEEMSNRIAKLEETVVSLMGLLKQILSLADVNKRLR, MGSEIDQNDTDSSTQEWYRLLVVEKSTTLSDFMTSKRTKMVSDFPEEREEAIEEIIEVISTFPMDFLQKDEVSLLLNYFINSIESSALTGGAVIRGVHHLILKSKNLPDNFEVSLIRVLFKEGNVQSWAQKERQLQYEILIWFLKYRLSFLKGLGPDFLATFMKSVSGERDPRCLVHMFSAFLEVSNNFTLGPFTEDMFETIACYFPVEFKPQKTDTITREYLAASCASCLVSSPSFAPFCFLFIDEKLNDDDCSDEEYEDVLNLLILAYNRFPAQKKNLSLIEPLIGGIRKIGLNPKNKGEMQKYVSQAFEAVIKLCTKSSETNSKALDGIVSSIVEDSEPFVLQAEMGLCKKALTLLRSAFKSLPDKNSRQIFNQVIAWILNLIQGDSVNAAGNRADIVQEGLEYLVEWIQLASEYKELSIETLAVFEQSIFESCSRAREFKPREAITAIYECASVYFESDCASDELISQCRSYIALALRTPIDTDSDFQSLLKLIRIYSSKNFDQVEIILADNETNSWNAMKVLPVLCAISCSQRWNLLKNKIVDELGSTISSSTEISYLICYVQMMEKCKKDPQLFHQQFEVFESVLYKTDCNEPVSVSYLMQSISLLLSEDDHQKFMNQTTTRYQSLEGSSLDNFNQKYRLAYLQNKNTNDLKTIANLKLPERTIRQLFFAICNREAENENNSEIPEQHHIAEIKAKLLRNAPNSLSAFEQFLTNISGSTESPFEYLLDFDSFDSNPDRCRYETASPLWRQRIFCQIVPIFKRKFEEPGSQKHVLVEMLPHLLTFAVPLDFQQLKKQFAMLLPVLIQTIGMEDVIPSHVTRTIPMFLTISEPLQPKDLGTVVKYLCSITRDNDSNMTNLEDALNGLNILARRQPPKSLHSEVPLVVTSINKILGHKKRLLRMMAADVKNNWEMVITK, MGSFMTDIAVIINNRAKNAHRMEDYLSELRAHDIDYQLYKADPQQLEKNIQHCCSKYPLLLIGGGDGTVRSAAQWCSNTSVILGVLPLGTMNHFSKELNLPSTTEELIAAIVEKTTTTIDVAEVNGH, MGSSHHHHHHGGTGENLYFQGGSGKNYFYIPIADDMHCHLRQGDMLDFTVNSIRRGGCNRVLVMPNTHPIISTCSDAQKYLYQLKSRDDDIEYLMTLYLNKNTDENDILSNYYKCNLQGVKIYPSNVTTNSSDGITSLEPYYKVFHALEKLNKSIHIHCEEPNINPLYAEEKYLPHIHDLAIKFPGLNIVLEHISSSESINVIKEFRNVAGSITPHHLYLTIDDVVNMDIYDHAIDNTYIEKYIKNTYHYCKPLPKLLEDKIALQDVIKDDFPRVFLGSDSAPHYKVMKRKPYYKPGIYTQPFLINYVAHILNKFDALDKMENFTSKNASLFLNLAEKKKLAKYYICVEKHPFKLPREYNGVVPFLAGKTLDYDIHYVSKF
